Data published in patent publication US20260242729A1.

Target: CD28 on the surface of PBMCs and T cells (human) (UniProt P10747)
Assay: flow cytometry; CD28 positive fraction after Fab-multimer magnetic selection, D-biotin release and washing; remaining CD28.3 Fab monomers detected with the α-Ig kappa mAb; live (PI-negative) CD3+ cells; right dot plot

percentage of cells within gate: 5.91%
Substance: αCD28 Fab fragment derived from the anti-human CD28 antibody CD28.3, heavy chain C-terminally fused to Twin-Strep-tag (monomeric Fab)
